Laboratory results from patent US11499162B2, “Plants having increased tolerance to herbicides” (BASF SE, priority 2016, dated 2022).

B1: N70S: mutated TriA variant of SEQ ID NO: 2 (protein)
chain: MQTLSIQHGTLVTMDQYRRVLGDSWVHVQDGRIVALGVHAESVPPPADRVIDARGKVVLPGFINAHTHVSQILLRGGPSHGRQLYDWLFNVLYPGQKAMRPEDVAVAVRLYCAEAVRSGITTINDNADSAIYPGNIEAAMAVYGEVGVRVVYARMFFDRMDGRIQGYVDALKARSPQVELCSIMEETAVAKDRITALSDQYHGTAGGRISVWPAPAITPAVTVEGMRWAQAFARDRAVMWTLHMAESDHDERLHWMSPAEYMECYGLLDERLQVAHCVYFDRKDVRLLHRHNVKVASQVVSNAYLGSGVAPVPEMVERGMAVGIGTDDGNCNDSVNMIGDMKFMAHIHRAVHRDADVLTPEKILEMATIDGARSLGMDHEIGSIETGKRADLILLDLRHPQTTPHHHLAATIVFQAYGNEVDTVLIDGNVVMENRRLSFLPPERELAFLEEAQSRATAILQRANMVANPAWRSL
modifications: Pseudomonas
B2: Q71NL88AL92A: mutated TriA variant of SEQ ID NO: 2 (protein)
chain: MQTLSIQHGTLVTMDQYRRVLGDSWVHVQDGRIVALGVHAESVPPPADRVIDARGKVVLPGFINAHTHVNNILLRGGPSHGRQLYDWAFNVAYPGQKAMRPEDVAVAVRLYCAEAVRSGITTINDNADSAIYPGNIEAAMAVYGEVGVRVVYARMFFDRMDGRIQGYVDALKARSPQVELCSIMEETAVAKDRITALSDQYHGTAGGRISVWPAPAITPAVTVEGMRWAQAFARDRAVMWTLHMAESDHDERLHWMSPAEYMECYGLLDERLQVAHCVYFDRKDVRLLHRHNVKVASQVVSNAYLGSGVAPVPEMVERGMAVGIGTDDGNCNDSVNMIGDMKFMAHIHRAVHRDADVLTPEKILEMATIDGARSLGMDHEIGSIETGKRADLILLDLRHPQTTPHHHLAATIVFQAYGNEVDTVLIDGNVVMENRRLSFLPPERELAFLEEAQSRATAILQRANMVANPAWRSL
modifications: Pseudomonas
B3: F157S: mutated TriA variant of SEQ ID NO: 2 (protein)
chain: MQTLSIQHGTLVTMDQYRRVLGDSWVHVQDGRIVALGVHAESVPPPADRVIDARGKVVLPGFINAHTHVNQILLRGGPSHGRQLYDWLFNVLYPGQKAMRPEDVAVAVRLYCAEAVRSGITTINDNADSAIYPGNIEAAMAVYGEVGVRVVYARMFSDRMDGRIQGYVDALKARSPQVELCSIMEETAVAKDRITALSDQYHGTAGGRISVWPAPAITPAVTVEGMRWAQAFARDRAVMWTLHMAESDHDERLHWMSPAEYMECYGLLDERLQVAHCVYFDRKDVRLLHRHNVKVASQVVSNAYLGSGVAPVPEMVERGMAVGIGTDDGNCNDSVNMIGDMKFMAHIHRAVHRDADVLTPEKILEMATIDGARSLGMDHEIGSIETGKRADLILLDLRHPQTTPHHHLAATIVFQAYGNEVDTVLIDGNVVMENRRLSFLPPERELAFLEEAQSRATAILQRANMVANPAWRSL
modifications: Pseudomonas
B4: Q71S: mutated TriA variant of SEQ ID NO: 2 (protein)
chain: MQTLSIQHGTLVTMDQYRRVLGDSWVHVQDGRIVALGVHAESVPPPADRVIDARGKVVLPGFINAHTHVNSILLRGGPSHGRQLYDWLFNVLYPGQKAMRPEDVAVAVRLYCAEAVRSGITTINDNADSAIYPGNIEAAMAVYGEVGVRVVYARMFFDRMDGRIQGYVDALKARSPQVELCSIMEETAVAKDRITALSDQYHGTAGGRISVWPAPAITPAVTVEGMRWAQAFARDRAVMWTLHMAESDHDERLHWMSPAEYMECYGLLDERLQVAHCVYFDRKDVRLLHRHNVKVASQVVSNAYLGSGVAPVPEMVERGMAVGIGTDDGNCNDSVNMIGDMKFMAHIHRAVHRDADVLTPEKILEMATIDGARSLGMDHEIGSIETGKRADLILLDLRHPQTTPHHHLAATIVFQAYGNEVDTVLIDGNVVMENRRLSFLPPERELAFLEEAQSRATAILQRANMVANPAWRSL
modifications: Pseudomonas
B5: Q71NL92A: mutated TriA variant of SEQ ID NO: 2 (protein)
chain: MQTLSIQHGTLVTMDQYRRVLGDSWVHVQDGRIVALGVHAESVPPPADRVIDARGKVVLPGFINAHTHVNNILLRGGPSHGRQLYDWLFNVAYPGQKAMRPEDVAVAVRLYCAEAVRSGITTINDNADSAIYPGNIEAAMAVYGEVGVRVVYARMFFDRMDGRIQGYVDALKARSPQVELCSIMEETAVAKDRITALSDQYHGTAGGRISVWPAPAITPAVTVEGMRWAQAFARDRAVMWTLHMAESDHDERLHWMSPAEYMECYGLLDERLQVAHCVYFDRKDVRLLHRHNVKVASQVVSNAYLGSGVAPVPEMVERGMAVGIGTDDGNCNDSVNMIGDMKFMAHIHRAVHRDADVLTPEKILEMATIDGARSLGMDHEIGSIETGKRADLILLDLRHPQTTPHHHLAATIVFQAYGNEVDTVLIDGNVVMENRRLSFLPPERELAFLEEAQSRATAILQRANMVANPAWRSL
modifications: Pseudomonas
B6: ΔA130_I131: TriA deletion variant of SEQ ID NO: 2 (protein)
chain: MQTLSIQHGTLVTMDQYRRVLGDSWVHVQDGRIVALGVHAESVPPPADRVIDARGKVVLPGFINAHTHVNQILLRGGPSHGRQLYDWLFNVLYPGQKAMRPEDVAVAVRLYCAEAVRSGITTINDNADSYPGNIEAAMAVYGEVGVRVVYARMFFDRMDGRIQGYVDALKARSPQVELCSIMEETAVAKDRITALSDQYHGTAGGRISVWPAPAITPAVTVEGMRWAQAFARDRAVMWTLHMAESDHDERLHWMSPAEYMECYGLLDERLQVAHCVYFDRKDVRLLHRHNVKVASQVVSNAYLGSGVAPVPEMVERGMAVGIGTDDGNCNDSVNMIGDMKFMAHIHRAVHRDADVLTPEKILEMATIDGARSLGMDHEIGSIETGKRADLILLDLRHPQTTPHHHLAATIVFQAYGNEVDTVLIDGNVVMENRRLSFLPPERELAFLEEAQSRATAILQRANMVANPAWRSL
modifications: Pseudomonas
B7: ΔA170_S182: TriA deletion variant of SEQ ID NO: 2 (protein)
chain: MQTLSIQHGTLVTMDQYRRVLGDSWVHVQDGRIVALGVHAESVPPPADRVIDARGKVVLPGFINAHTHVNQILLRGGPSHGRQLYDWLFNVLYPGQKAMRPEDVAVAVRLYCAEAVRSGITTINDNADSAIYPGNIEAAMAVYGEVGVRVVYARMFFDRMDGRIQGYVDIMEETAVAKDRITALSDQYHGTAGGRISVWPAPAITPAVTVEGMRWAQAFARDRAVMWTLHMAESDHDERLHWMSPAEYMECYGLLDERLQVAHCVYFDRKDVRLLHRHNVKVASQVVSNAYLGSGVAPVPEMVERGMAVGIGTDDGNCNDSVNMIGDMKFMAHIHRAVHRDADVLTPEKILEMATIDGARSLGMDHEIGSIETGKRADLILLDLRHPQTTPHHHLAATIVFQAYGNEVDTVLIDGNVVMENRRLSFLPPERELAFLEEAQSRATAILQRANMVANPAWRSL
modifications: Pseudomonas
B8: ΔR174_L180: TriA deletion variant of SEQ ID NO: 2 (protein)
chain: MQTLSIQHGTLVTMDQYRRVLGDSWVHVQDGRIVALGVHAESVPPPADRVIDARGKVVLPGFINAHTHVNQILLRGGPSHGRQLYDWLFNVLYPGQKAMRPEDVAVAVRLYCAEAVRSGITTINDNADSAIYPGNIEAAMAVYGEVGVRVVYARMFFDRMDGRIQGYVDALKACSIMEETAVAKDRITALSDQYHGTAGGRISVWPAPAITPAVTVEGMRWAQAFARDRAVMWTLHMAESDHDERLHWMSPAEYMECYGLLDERLQVAHCVYFDRKDVRLLHRHNVKVASQVVSNAYLGSGVAPVPEMVERGMAVGIGTDDGNCNDSVNMIGDMKFMAHIHRAVHRDADVLTPEKILEMATIDGARSLGMDHEIGSIETGKRADLILLDLRHPQTTPHHHLAATIVFQAYGNEVDTVLIDGNVVMENRRLSFLPPERELAFLEEAQSRATAILQRANMVANPAWRSL
modifications: Pseudomonas

Format: biochemical
Conditions: pH 7.2
Description: EXAMPLE 3: Protein Purification. TriA and variants thereof were produced in E. coli BL21(DE3) Gold (Agilent Technologies, Germany). Therefore E. coli was transformed with appropriate pET24d N-HIS tag expression vector and chaperone plasmid pGro7 (chaperones groEL and groES). Bacterial strains were grown at 30° C. in 100 mL LB for 20 h and protein expression induced with 0.1 mM IPTG at 25° C. for 20 hs. Cells were harvested by centrifugation at 3000 rpm at 4° C. for 20 min, resuspended in Bug Buster protein extraction reagent (Novagen, Germany) according to manufactures instructions. Lysates were clarified by centrifugation. Samples of bovine serum albumin ([…]) were loaded onto each gel analyzed by densitometry to provide an internal standard. Protein determinations were verified using Coomassie protein assay dye, according to manufactures instruction (Thermo Scientific; USA). The HIS-tagged enzymes were purified by metal ion affinity chromatography using Ni-IDA 1000 kit (Macherey-Nagel, Germany) following manufactures instructions. Protein purity was accessed by SDS-PAGE using NuPAGE Novex 4-12% Bis-Tris pre-cast gels (Life Technologies; USA) stained with Coomassie Brilliant Blue (Serva, Germany). Protein concentrations were estimated by measuring absorbance at 280 nm using Lambda Bio+(Perkin Elmer, USA). EXAMPLE 4: Enzyme kinetics. Resting cell suspension containing triA gene were incubated with various azines, melamine and atrazine and the culture filtrate was analyzed by UPLC-HR-MS. Substrates were obtained either from Sigma-Aldrich or synthesized internally. Synthetic standards and enzyme reaction products were analysed by UPLC-HR-MS (Thermo/Dionex UPLC UltiMate3000 coupled to a QExactive high resolution mass spectrometer). A Waters Acquity HSS T3 column (2.1 mm; 100 mm; […]) was used with a mobile phase water/acetonitrile (0.1% formic acid) with a flow rate of […]. Enzymes were used solved 25 mM sodium phosphate buffer (pH 7.2) with substrate concentration in the range of 1 nM to 10 nM at 30° C. Over time, the original azine peak disappeared whereas the formed OH-Metabolite (reaction product) increased. The product was identified by determination of the exact formula and by analysis of the accurate MS-MS fragments. Moreover for some of the formed products authentic standards were co-eluted. Degradation in % was calculated against the cells harboring the empty vector as control.

Point of comparison: B4, “Degradation in % of 6-cyclopentyl-N4-(2,3,4,5,6-pentafluorophenyl)-1,3,5-triazine-2,4-diamine” value 0%. Against it:
- B1 — the same, 0%
- B2 — higher, 64%
- B3 — the same, 0%
- B5 — higher, 99%
- B6 — the same, 0%
- B7 — higher, 2%
- B8 — the same, 0%

Point of comparison: B1, “Degradation in % of Melamine” value 0%. Against it:
- B2 — higher, 40%
- B3 — higher, 10%
- B4 — higher, 43%
- B5 — higher, 87%
- B6 — higher, 3%
- B7 — the same, 0%
- B8 — higher, 1%
